Results published in US20180346554A1 (University of Pennsylvania, published 2018).

Columns and labels:
Assay in all cases: cell-based or functional assay
[1] = biological target: Env of the HIV-1 pseudotyped virus Bal26 (clade B, Tier 1) (HIV-1 (clade B, Bal26))
[2] = biological target: Env of the HIV-1 pseudotyped virus Q23Env17 (clade A, Tier 1) (HIV-1 (clade A, Q23Env17))
[3] = biological target: Env of the HIV-1 pseudotyped virus SF162S (clade B, Tier 1) (HIV-1 (clade B, SF162S))

B1: HIV-1 Env-Fab (Fab generated from the VRC01 antibody by pHIV-1 Env Fab) (Fab, V domains shown)
VH: QVQLVQSGGQMKKPGESMRISCRASGYEFIDCTLNWIRLAPGKRPEWMGWLKPRGGAVNYARPLQGRVTMTRDVYSDTAFLELRSLTVDDTAVYFCTRGKNCDYNWDFEHWGRGTPVIVSS
VL: QIVLTQSPGTLSLSPGETAIISCRTSQYGSLAWYQQRPGQAPRLVIYSGSTRAAGIPDRFSGSRWGPDYNLTISNLESGDFGVYYCQQYEFFGQGTKVQVDI
plateau percent neutralization (TZM-Bl luciferase assay, serum 1:50) [1]: ~62%
plateau percent neutralization (TZM-Bl luciferase assay, serum 1:50) [2]: ~60%
plateau percent neutralization (TZM-Bl luciferase assay, serum 1:50) [3]: ~70%
